From patent US20220135687A1 (NANJING LEGEND BIOTECH, published 2022)

B1: 29A8_VH1-VL1.M1 (antibody, human IgG1, kappa, N297A)
heavy: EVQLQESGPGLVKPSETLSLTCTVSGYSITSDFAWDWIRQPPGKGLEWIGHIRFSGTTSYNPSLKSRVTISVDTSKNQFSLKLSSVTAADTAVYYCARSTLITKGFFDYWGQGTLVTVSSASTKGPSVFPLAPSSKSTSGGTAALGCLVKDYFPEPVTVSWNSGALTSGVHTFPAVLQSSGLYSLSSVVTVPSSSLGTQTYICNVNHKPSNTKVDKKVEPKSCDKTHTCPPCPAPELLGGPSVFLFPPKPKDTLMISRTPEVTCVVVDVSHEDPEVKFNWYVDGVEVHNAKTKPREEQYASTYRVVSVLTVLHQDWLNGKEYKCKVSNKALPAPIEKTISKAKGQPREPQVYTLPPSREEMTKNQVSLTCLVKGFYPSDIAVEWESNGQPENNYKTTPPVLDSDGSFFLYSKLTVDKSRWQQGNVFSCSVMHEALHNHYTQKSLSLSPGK
light: DIQMTQSPSSLSASVGDRVTITCRASQDVSPAVAWYQQKPGKAPKLLIYWASTRHTGVPSRFSGSGSGTDFTLTISSLQPEDFATYYCQQHYSTPWTFGQGTKVEIKRTVAAPSVFIFPPSDEQLKSGTASVVCLLNNFYPREAKVQWKVDNALQSGNSQESVTEQDSKDSTYSLSSTLTLSKADYEKHKVYACEVTHQGLSSPVTKSFNRGEC
notes: Humanized, hIgG1 effector-less Fc, kappa; see recheck on K24R in the .M1 light chain
B2: 29A8_VH4-VL1.M1 (antibody, human IgG1, kappa, N297A)
heavy: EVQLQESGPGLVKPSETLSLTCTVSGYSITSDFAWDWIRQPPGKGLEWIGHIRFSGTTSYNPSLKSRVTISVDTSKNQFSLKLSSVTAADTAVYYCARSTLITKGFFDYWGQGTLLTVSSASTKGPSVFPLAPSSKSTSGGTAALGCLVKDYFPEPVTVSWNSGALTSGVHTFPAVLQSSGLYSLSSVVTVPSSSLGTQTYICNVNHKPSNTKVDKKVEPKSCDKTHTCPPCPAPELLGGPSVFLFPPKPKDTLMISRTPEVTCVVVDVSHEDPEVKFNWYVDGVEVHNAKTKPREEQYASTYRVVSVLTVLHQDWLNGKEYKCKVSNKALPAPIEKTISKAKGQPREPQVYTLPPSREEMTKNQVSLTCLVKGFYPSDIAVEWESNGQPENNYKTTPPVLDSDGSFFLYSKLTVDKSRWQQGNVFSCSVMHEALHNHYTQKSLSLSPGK
light: B1 light
notes: as for B1
B3: 29A8_VH5-VL1.M1 (antibody, human IgG1, kappa, N297A, V domains shown)
VH: EVQLQESGPGLVKPSETLSLTCTVSGYSITSDFAWDWIRQPPGKGLEWIGHIRFSGTTSYNPSLKSRVTISRDTSKNQFSLKLSSVTAADTAVYYCARSTLITKGFFDYWGQGTLVTVSS
VL: DIQMTQSPSSLSASVGDRVTITCRASQDVSPAVAWYQQKPGKAPKLLIYWASTRHTGVPSRFSGSGSGTDFTLTISSLQPEDFATYYCQQHYSTPWTFGQGTKVEIKR
notes: as for B1
B4: 53C1_chimeric (antibody, human IgG1, kappa, N297A, V domains shown)
VH: QVQLQQSGNELARPGASVRLSCKASGYIFTGYGITWVRQRPGQGLEWIGEIFPRRVNTYYSEKFKGRATLTADISSSTAYMELRSLTSEDSAVYFCARDYDPYFALDYWGQGTSVTVSS
VL: DIVMTQSHKFMSTSVGDRVSITCKASQDVSTAVDWYQQKPGQSPKLLIYSASYRYTGVPDRFTGSGSGTAFTFTISGEQAEDLAVYYCQQHYSIPFTFGGGTKLEIKR
notes: Human IgG1 with effector-less Fc mutations, human kappa; also called chimeric 53C1F3D4
B5: 53C1_VH3-VL1.M1 (antibody, human IgG1, kappa, N297A, V domains shown)
VH: EVQLVQSGAEVKKPGASVKLSCKASGYIFTGYGITWVRQAPGQGLEWIGEIFPRRVNTYYSEKFKGRATLTADTSTSTAYMELRSLRSDDTAVYFCARDYDPYFALDYWGQGTTVTVSS
VL: DIQMTQSPSSLSASVGDRVTITCRASQDVSTAVDWYQQKPGKAPKLLIYSASYRYTGVPDRFSGSGSGTDFTFTISSLQPEDIATYYCQQHYSIPFTFGQGTKLEIKR
notes: as for B1
B6: 29A8_chimeric (antibody, human IgG1, kappa, N297A, V domains shown)
VH: DVQLQGSGPGLVKPSQSLSLTCTVTGYSITSDFAWDWIRQFPGNKLEWMGHIRFSGTTSYNPSLKSRISITRDTSKNQFFLQLNSVTSEDTATYYCARSTLITKGFFDYWGQGTTLTVSS
VL: DIVMTQSHKFMSTSVGGRVSITCKASQDVSPAVAWYQQKPGQSPKLLIYWASTRHTGVPDRFTGSGSGTDFTLTISSVQTEDLALYYCQQHYSTPWTFGGGTKLEIKR
notes: Human IgG1 with effector-less Fc mutations, human kappa; also called chimeric 29A8H8C7
B7: 27D3D3G2 (antibody, V domains shown)
VH: QVLLQQSGPELVKPGASVRISCKASGYTFTSYYMHWVKQRPGQGLEWIGWIYPGNVNTKYNEKFKGKATLTADKSSSTAYMQLSSLTSEDSAVYFCASYGNYGGWYFDVWGAGTTVTVSS
VL: DIQMTQTTSSLSASLGDRVTISCRASQDIGNYLNWYQQKPDGTVKLLIYYTSRLHSGVPSRFSGSGSGTDYSLTISNLEQEDIATYFCQQGDTFPWTFGGGTKLEIK
notes: Mouse mAb from hybridoma culture
B8: 29A8H8C7 (antibody, V domains shown)
VH: B6 VH
VL: DIVMTQSHKFMSTSVGGRVSITCKASQDVSPAVAWYQQKPGQSPKLLIYWASTRHTGVPDRFTGSGSGTDFTLTISSVQTEDLALYYCQQHYSTPWTFGGGTKLEIK
notes: Mouse mAb from hybridoma culture; also called mouse 29A8H8C7
B9: 51F3D2G4 (antibody, V domains shown)
VH: QVQLQQSGAELARPGASVRLSCKASGYIFTGYGISWVKQRTGQGLEWIGEIFPRTANTYFNEKFKGKATLTADKSSSTAYMELRSLTSEDSAVYFCARDYDPYYALDYWGQGTSVTVSS
VL: DIVMTQSHKFMSTSVGDRVTITCKASQDVSTAVDWYQQKPGQSPKLLIYSASYRYTGVPDRFTGSGSGTAFTFTISSEQAEDLAVYYCQQHYSVPFTFGGGTKLEIK
notes: as for B7

target: T1, His-tagged PD-L1 ECD protein (ACROBiosystems) (human, UniProt Q9NZQ7 19-238); assay: SPR, IgG captured by anti-human Fc, PD-L1-His analyte
T1 construct: Bought protein; also called PD-L1-His; PD-L1/His; not shown: His tag
T1 sequence (Q9NZQ7 19-238): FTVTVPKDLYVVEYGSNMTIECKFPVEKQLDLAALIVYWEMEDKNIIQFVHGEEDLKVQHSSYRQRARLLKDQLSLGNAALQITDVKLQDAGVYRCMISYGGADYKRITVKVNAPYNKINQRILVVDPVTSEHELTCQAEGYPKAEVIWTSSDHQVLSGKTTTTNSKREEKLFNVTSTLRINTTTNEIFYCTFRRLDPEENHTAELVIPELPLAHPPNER
Procedure: (§1) Briefly, capturing antibody (anti-mouse Fc antibody for the affinity measurement of mouse mAbs, or anti-human Fc antibody for the affinity measurement of chimeric and humanized mAbs, GE healthcare) was immobilized on a Biacore™ CM5 chip to approximately 7,000 RU using EDC-activated amine coupling chemistry. Antibody of interest (5 μg/ml) was captured for 60 seconds onto the sensorchip surface. His-tagged PD-L1 ECD protein (ACROBiosystems) was flowed over the sensorchip surface at a series concentrations. Flow rate was 30 μl/min in all experiments. Association and dissociation phases were 5 and 15 min, respectively. The chip was regenerated using Glycine/HCl pH 1.5. Captured antibody and antigen were removed between each cycle using 50 mM HCl in order to ensure a fresh binding surface for each concentration of antigen. The resulting sensorgrams were fit globally using a 1:1 binding model in order to calculate on- and off-rates (ka and kd, respectively), as well as affinities (KD).

| Binder | Kd | koff | kon |
| --- | --- | --- | --- |
| B1 | 1.4 nM | 0.0008 s⁻¹ | 590000 M⁻¹ s⁻¹ |
| B2 | 1.1 nM | 0.00071 s⁻¹ | 630000 M⁻¹ s⁻¹ |
| B3 | 0.74 nM | 0.00046 s⁻¹ | 620000 M⁻¹ s⁻¹ |
| B4 | 0.78 nM | 0.00019 s⁻¹ | 240000 M⁻¹ s⁻¹ |
| B5 | 0.55 nM | 0.00016 s⁻¹ | 290000 M⁻¹ s⁻¹ |
| B6 | 0.3 nM | 0.00019 s⁻¹ | 640000 M⁻¹ s⁻¹ |

target: T1, His-tagged PD-L1 ECD protein …; assay: SPR, supernatant IgG captured, PD-L1-His analyte

| Binder | Kd | koff | kon |
| --- | --- | --- | --- |
| B4 | 0.72 nM | 0.00018 s⁻¹ | 250000 M⁻¹ s⁻¹ |
| B5 | 0.49 nM | 0.00015 s⁻¹ | 300000 M⁻¹ s⁻¹ |

target: T2, human PD-L1 expressed on CHO-K1 cells (Genscript, Cat #M00543) (human, UniProt Q9NZQ7 19-290); assay: cell-based or functional assay
T2 sequence (Q9NZQ7 19-290, one chain of several): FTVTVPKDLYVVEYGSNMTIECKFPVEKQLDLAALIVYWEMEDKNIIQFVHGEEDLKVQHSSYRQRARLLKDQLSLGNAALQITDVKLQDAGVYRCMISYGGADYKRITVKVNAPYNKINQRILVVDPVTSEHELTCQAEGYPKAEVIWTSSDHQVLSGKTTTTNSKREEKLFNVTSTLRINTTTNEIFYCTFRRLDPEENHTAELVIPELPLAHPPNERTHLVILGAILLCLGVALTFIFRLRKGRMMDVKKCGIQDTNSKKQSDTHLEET

| Binder | EC50, PD-L1 cell-based luciferase reporter assay |
| --- | --- |
| B1 | 2.01 nM |
| B2 | 1.24 nM |
| B3 | 1.81 nM |
| B4 | 1.98 nM |
| B5 | 2.26 nM |
| B6 | 1.34 nM |

target: T2, human PD-L1 expressed on CHO-K1 cells …; assay: FACS, CHO-K1/human PD-L1 cells
Procedure: (§2) PD-L1 stable cell line binding activity assessment of 12 mouse mAbs was carried out using FACS. CHO-K1 cells expressing human PD-L1 (Genscript, Cat #M00543) were dissociated from adherent culture flasks and mixed with varying concentrations of antibodies. The antibody and cells were incubated for 30 minutes at room temperature, washed three times with FACS buffer (PBS containing 1% BSA). PE-labeled goat anti-mouse IgG (minimal x-reactivity) secondary antibody (BioLegend, Cat #405307) was added and incubated at room temperature for 15 minutes. Cells were washed again with FACS buffer and analyzed by FACSCalibur (BD Bioscience, San Jose, Calif.) and Flowjo software. Data were analyzed with Prism 6 (GraphPad Software, San Diego, Calif.) using non-linear regression, and EC₅₀ values were calculated (FIGS. 2A-2L and Table 3).

| Binder | EC50 | Top (best-fit value) |
| --- | --- | --- |
| B7 | 4.19 nM | 1770 |
| B8 | 3.06 nM | 2440 |
| B9 | 2.13 nM | 1720 |

target: T1, His-tagged PD-L1 ECD protein …; assay: SPR, supernatant IgG captured, PD-L1-His analyte; remark: another data set of the same source

| Binder | Kd | koff | kon |
| --- | --- | --- | --- |
| B4 | 0.75 nM | 0.00019 s⁻¹ | 260000 M⁻¹ s⁻¹ |
| B6 | 0.32 nM | 0.00017 s⁻¹ | 530000 M⁻¹ s⁻¹ |

target: T2, human PD-L1 expressed on CHO-K1 cells …; assay: cell-based or functional assay; remark: another data set of the same source

| Binder | EC50, PD-L1 cell-based luciferase reporter assay |
| --- | --- |
| B7 | 3.62 nM |
| B8 | 3.61 nM |
| B9 | 8.69 nM |

target: T1, His-tagged PD-L1 ECD protein …; assay: SPR, supernatant IgG captured, PD-L1-His analyte; remark: another data set of the same source

| Binder | Kd | koff | kon |
| --- | --- | --- | --- |
| B1 | 1.5 nM | 0.00071 s⁻¹ | 470000 M⁻¹ s⁻¹ |
| B2 | 1.1 nM | 0.00063 s⁻¹ | 560000 M⁻¹ s⁻¹ |
| B3 | 0.76 nM | 0.00042 s⁻¹ | 550000 M⁻¹ s⁻¹ |
| B6 | 0.25 nM | 0.00015 s⁻¹ | 580000 M⁻¹ s⁻¹ |

target: cynomolgus PD-L1 Fc-fusion protein (cynomolgus, UniProt G7PSE7 19-238); assay: SPR, cyno PD-L1-Fc immobilised, antibody analyte
Sequence (G7PSE7 entry or part of it limits assumed): as the sequence (Q9NZQ7 19-238) above, with A33T, A34S, S62N, R68Q, Q82R, F173L, T185A, T192I, H215L counted along it

| Binder | Kd | koff | kon |
| --- | --- | --- | --- |
| B1 | 4 nM | 0.00043 s⁻¹ | 110000 M⁻¹ s⁻¹ |
| B2 | 3.3 nM | 0.00044 s⁻¹ | 130000 M⁻¹ s⁻¹ |
| B3 | 0.98 nM | 0.0002 s⁻¹ | 200000 M⁻¹ s⁻¹ |
| B4 | 1.1 nM | 9.5e-05 s⁻¹ | 87000 M⁻¹ s⁻¹ |
| B5 | 0.71 nM | 6.8e-05 s⁻¹ | 95000 M⁻¹ s⁻¹ |
| B6 | 0.48 nM | 7.3e-05 s⁻¹ | 150000 M⁻¹ s⁻¹ |

target: T1, His-tagged PD-L1 ECD protein …; assay: SPR, mAb captured via anti-Fc, PD-L1-His analyte
Procedure: as §1

| Binder | Kd | koff | kon |
| --- | --- | --- | --- |
| B8 | 0.28 nM | 0.00017 s⁻¹ | 620000 M⁻¹ s⁻¹ |

target: T2, human PD-L1 expressed on CHO-K1 cells …; assay: FACS, CHO-K1/human PD-L1 cells; remark: another data set of the same source
Procedure: as §2
Human and cynomolgus PD-L1 stable cell line binding activity assessment of chimeric and humanized mAbs was carried out using FACS as described above (FIGS. 9A-9L and FIGS. 10A-10L and Tables 13 and 14).

| Binder | EC50 | Top (best-fit value) |
| --- | --- | --- |
| B1 | 1.75 nM | 6400 |
| B2 | 1.05 nM | 5180 |
| B3 | 1.31 nM | 5100 |
| B4 | 1.79 nM | 6230 |
| B5 | 2 nM | 6410 |
| B6 | 1.08 nM | 6410 |

target: T3, cynomolgus PD-L1 overexpressing stable cell line (cynomolgus, UniProt G7PSE7 19-290); assay: FACS, cynomolgus PD-L1 cell line
T3 construct: also called cynomolgus PD-L1 overexpressing cell line
T3 sequence (G7PSE7 entry or part of it limits assumed): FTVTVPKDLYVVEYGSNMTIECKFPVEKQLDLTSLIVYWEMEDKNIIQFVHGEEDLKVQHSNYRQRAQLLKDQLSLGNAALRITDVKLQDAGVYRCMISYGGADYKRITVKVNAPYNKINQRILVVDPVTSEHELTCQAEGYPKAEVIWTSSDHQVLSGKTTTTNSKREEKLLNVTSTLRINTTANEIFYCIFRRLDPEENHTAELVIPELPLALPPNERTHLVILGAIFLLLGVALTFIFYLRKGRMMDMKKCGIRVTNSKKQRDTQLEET

| Binder | EC50 | Top (best-fit value) |
| --- | --- | --- |
| B1 | 3.53 nM | 7470 |
| B2 | 1.49 nM | 7820 |
| B3 | 3.07 nM | 7950 |
| B4 | 2.88 nM | 8490 |
| B5 | 4.66 nM | 8310 |
| B6 | 2.77 nM | 8670 |

target: T2, human PD-L1 expressed on CHO-K1 cells …; assay: FACS competition vs biotin-PD-1-Fc on CHO-K1/human PD-L1 cells
Procedure: A series of diluted mouse mAbs (concentration starting from 900 nM, 3 fold dilution, 50 μl per well) were added afterwards. The mixture was incubated at 4° C. for 30 minutes, washed twice with wash buffer, followed by the addition of PEcy5/streptavidin (1 μg/ml, 150 μl/well). The plates were again incubated at 4° C. for 30 minutes before the cells in each well were analyzed by FACSCalibur (BD Bioscience, San Jose, Calif.) and Flowjo software.

| Binder | IC50 |
| --- | --- |
| B1 | 0.463 nM |
| B2 | 0.385 nM |
| B3 | 0.545 nM |
| B4 | 0.59 nM |
| B5 | 0.482 nM |
| B7 | 1.28 nM |
| B8 | 1.41 nM |
| B9 | 1.23 nM |
| B6 | 0.3 nM |
